Assay: soluble on expression in E. coli; label from the status in PepcDB or PDB records

| Sequence | soluble on expression in E. coli |
| --- | --- |
| MGSDKIHHHHHHMQDCDVRIFYIFKSLYDSGSATFVSQQHSVSPSKVSRYIAEMREVYNDSLFIRRKTHFVPTKKAREIYPKICEIIELIEGLSANRHELEVKKECVIAVPATLCVGLPEHLNRVIKQEGLDISLKVMSSHREICTKVINGEICIAITNRACTQTMDCNPKHSNLLHVEPISVGEHVYVVSAATGAIWQEKISLDNIAKYPFVVTQVSGFNDEKDPFEVYCEQRGLALNVFLKTQNLASMIEALMSENTISFIGPNSAAAFIAKVPSLRVEKLENCEYQRLHEAMHKPTYSMIYLKRNIDVIPPLIKSEVLRFISDSVCDF | not soluble |
| MLKGFTPWPDELAETYRKNGCWAGETFGDLLRDRAAKYGDRIAITCGNTHWSYRELDTRADRLAAGFQKLGIQQKDRVVVQLPNIKEFFEVIFALFRLGALPVFALPSHRSSEITYFCEFAEAAAYIIPDAYSGFDYRSLARQVQSKLPTLKNIIVAGEAEEFLPLEDLHTEPVKLPEVKSSDVAFLQLSGGSTGLSKLIPRTHDDYIYSLKRSVEVCWLDHSTVYLAALPMAHNYPLSSPGVLGVLYAGGRVVLSPSPSPDDAFPLIEREKVTITALVPPLAMVWMDAASSRRDDLSSLQVLQVGGAKFSAEAARRVKAVFGCTLQQVFGMAEGLVNYTRLDDPEEIIVNTQGKPMSPYDESRVWDDHDRDVKPGETGHLLTRGPYTIRGYYKAEEHNAASFTEDGFYRTGDIVRLTRDGYIVVEGRAKDQINRGGEKVAAEEVENHLLAHPAVHDAAMVSMPDQFLGERSCVFIIPRDEAPKAAELKAFLRERGLAAYKIPDRVEFVESFPQTGVGKVSKKALREAISEKLLAGFKK | soluble |
| MIAASDLKAGMTFEQDGKLIKVMEASHHKPGKGNTVMRMKLKDVRTGSTTDTTMRPDEKVKKAHIDTKPVQYLYSQDDMAIFMDLETYEQYEVPTALIEEELKYLLENMEVKIQFYGEEVIGLTLPTTVILRVAETQPSIKGATVTGSGKPATMETGLVVNVPDFVEADELLEINTAEGTYLKRAK | not soluble |
| MSLTADVDYPLLAKMRSASRRALTSLVDWFGTMAQDLDHQGLTTLAGELVSVARLLDREAVVTRYLTVPAEDATPRIRLIERLVSGKVGAPTLEVLRTAVSKRWSANSDLIDAIEHVSRQALLELAERAGQVDEVEDQLFRFSRILDVQPRLAILLGDCAVPAEGRVRLLRKVLERADSTVNPVVVALLSHTVELLRGQAVEEAVLFLAEVAVARRGEIVAQVGAAAELSDAQRTRLTEVLSRIYGHPVTVQLHIDAALLGGLSIAVGDEVIDGTLSSRLAAAEARLPDEGHHHHHH | soluble |
| PEMQSMIVAEINPAYRSLIADEPQIAPLLQDKRVEIVLDDGRKWLRRHPDEKFDLILMNTTWYWRAYSTNLLSAEFLKQVQSHLTPDGIVMFNTTHSPHAFATAVHSIPYAYRYGHMVVGSATPVVFPNKELLKQRLSRLIWPESGRHVFDSSTVDAAAQKVVSRMLIQMTEPSAGAEVITDDNMIVEYKYGRGI | not soluble |
| GSPQLRQVGQIIRVPARMAATLILEPAGRCCWDEPVRIAVRGLAPEQPVTLRASLRDEKGALFQAHARYRADTLGELDLERAPALGGSFAGLEPMGLLWALEPEKPLVRLVKRDVRTPLAVELEVLDGHDPDPGRLLCQTRHERYFLPPGVRREPVRVGRVRGTLFLPPEPGPFPGIVDMFGTGGGLLEYRASLLAGKGFAVMALAYYNYEDLPKTMETLHLEYFEEAMNYLLSHPEVKGPGVGLLGISKGGELCLSMASFLKGITAAVVINGSVANVGGTLRYKGETLPPVGVNRNRIKVTKDGYADIVDVLNSPLEGPDQKSFIPVERAESTFLFLVGQDDHNWKSEFYANEACKRLQAHGRRKPQIICYPETGHYIEPPYFPLCRASLHALVGSPIIWGGEPRAHAMAQVDAWKQLQTFFHKHLGGHEGTIPSKVLEHHHHHH | soluble |
| SLRYASDFEEIAVLGQGAFGQVVKARNALDSRYYAIKKIRHTEEKLSTILSEVMLLASLNHQYVVRYYAAWLERRNFVKPMTAVKKKSTLFIQMEYCENRTLYDLIHSENLNQQRDEYWRLFRQILEALSYIHSQGIIHRDLKPMNIFIDESRNVKIGDFGLAKNVHRSLDILKLDSQNLPGSSDNLTSAIGTAMYVATEVLDGTGHYNEKIDMYSLGIIFFEMIYPFSTGMERVNILKKLRSVSIEFPPDFDDNKMKVEKKIIRLLIDHDPNKRPGARTLLNSGWLPVKHQDEVIKEALKSL | soluble |
| MSNRKYFGTDGIRGRVGDAPITPDFVLKLGWAAGKVLARHGSRKIIIGKDTRISGYMLESALEAGLAAAGLSALFTGPMPTPAVAYLTRTFRAEAGIVISASHNPFYDNGIKFFSIDGTKLPDAVEEAIEAEMEKEISCVDSAELGKASRIVDAAGRYIEFCKATFPNELSLSELKIVVDCANGATYHIAPNVLRELGANVIAIGCEPNGVNINAEVGATDVRALQARVLAEKADLGIAFDGDGDRVIMVDHEGNKVDGDQIMYIIAREGLRQGQLRGGAVGTLMSNMGLELALKQLGIPFARAKVGDRYVLEKMQEKGWRIGAENSGHVILLDKTTTGDGIVAGLQVLAAMARNHMSLHDLCSGMKMFPQILVNVRYTAGSGDPLEHESVKAVTAEVEAALGNRGRVLLRKSGTEPLIRVMVEGEDEAQVTEFAHRIADAVKAV | not soluble |
| MAHHHHHHMLPLDSPPVTQLAKEFVNFINEACTPFHAVEVLSSWLSNAGYQRLKEGETWPKLTNGYRYFITRNDSSLVAFSVGGRFVAENGLKIVGAHTDSPNLALKPRTLAGRSDYQGVAVQCYGGGLWHTWFDRDLTVAGRVIISSSKLVKRLVKVNKPIMRIPTLAIHLQSVEERNAFGPNKEKHLVPVIATTLSHTPNGDVSEHHNSQLLILLAESLGCRPSEIVDYDLSVVDTQDAVVGGANDEFIYAPRLDNLISCFCGVKALLESDKTLEEENMIRMVCLFDNEEVGSSTSQGAGGSLVPDVIEYISASGGLRAQLVANSFLMSVDGAHAVHPNYQDKHEEKHRPLIHRGPVIKYNANMRYATNGVTAAIVKAIAKRASVPIQEFCVKNDSPCGSTIGPILSSLSGIQTVDLGNPMLSMHSIREMCGTADLLHLKNLLEAFFNHYTRDMVTS | not soluble |
| MGSDKIHHHHHHMSQDTILLIWDRIGDYHLSRVKACEKLLGAPVFTADLAGTDNLYKWDSIAKTTHTVLSSKPAEQSDIWNRFRTFRRIIKTHSIAVVAMPYGRTEYHIFLLYARLKGIRTIIFSESWYSRGKLKDFLKSLLLKSLGNYFFVSGKRAFDHFTKNYKINPEKIETGYSVVDNNHFQRRLFTEKKYVLTIARYSEEKNLSFLIDSYAKSVISNTYNLMLIGEGPLRPALQSQIDILGLSDRVQLAGWVPYAALPKAYAEAVVFVLPSSFEPWGLVVNEAMSAGLPILVSDACGCMPELVAEGVNGWSFNSNTQQELIERLNAFAALSEKGIEITGKNSMQLIRNYTPDTWAGSIARLAQAGR | not soluble |
| MSLEQSDRDRPLADRMRPRTLDEFAGQEHILAPGKPLRVQIDRDDIGSLIFWGPPGVGKTTLAKIIAAMTHADFIEFSAVLSGIKEIKQVMADAERVRQYGTRTILFVDEIHRFNRAQQDAFLPHVERGNIKLIGATTENPSFEVNSALLSRSRVYTLTPLTEEQIVGLLRRALTDTERGLAELHVTAEDIALARIAAYASGDARSGYNVLEVAAQAAGATSERIITEQIVADALQRRVLRYDKSGEEHYNLISALHKSVRNSDPDAALYWLARMIESGEDALYIARRVVRMAVEDIGLADPNALALTLAAKDAIDFLGMPEANLALAQAVVYLSIAPKSNALYTAYGDVQADVEKTAADPVPLHLRNAPTKLMKEIGYGSGYQYAHDLEAKVADMQCLPDNLKDRVYYHPTDQGIEQRIRTRLEEIRREGHHHHHH | soluble |
| MIKWPWKAQEITQNEDWPWDDALAIPLLVNLTAQEQARLIALAERFLQQKRLVALQGFELDSLKSARIALIFCLPILELGIEWLDGFHEVLIYPAPFVVDDEWEDDIGLVHSQRVVQSGQSWQQGPIILNWLDIQDSFDASGFNLIIHEVAHKLDMRNGDRASGIPFIPLRDVAGWEHDLHAAMNNIQDEIDLVGESAASIDAYAATDPAECFAVLSEYFFSAPELFAPRFPALWQRFCQFYRQDPSQRLRVSAAEGDYGEESEH | not soluble |
| MSANNTAKNMHPETRAVGSETSSLQASQDEFENLVRNVDVKSRIMDQYADWKGVRYRLGGSTKKGIDCSGFVQRTFREQFGLELPRSTYEQQEMGKSVSRSNLRTGDLVLFRAGSTGRHVGIYIGNNQFVHASTSSGVIISSMNEPYWKKRYNEARRVLSRSLEHHHHHH | soluble |
| MRKIIKGREPDAWLKYRCTPGAVYQRKPALADSLLLEQGYVCAYCEKRIDVQDLRVEHIKPRSQYPAQQLSYSNMVACCSGQSQGSAHCDCSKKDEEITLNLFTDALFLSISYKHDGTISSANKSWNDDINITLNLNCLSLKENRKLALEGLLEIIKKEDYSQGVLKRLKARYEAKDKGHKFAEYRGIILYYIDKKLSP | not soluble |
| MDYTNNQLHVIYGDASLGLEGPNFHYLFSYERGGLESLVVNQKEWLYRTPTPLFWRATTDNDHGNGFDVKAAQWYAADRFTTCQKIDLTVDGQLVQPLPIAPLNNRYTNHEMANQVALTYHFVTPTVPSTSVSITYTVASDGNIKIMTHFAGREGLPELPAFGLRFIMPTTATGFDYQGLSGETYPDRLAGATQGQFHVDGLPVTPYLVPQECGMHMQTSQLTVTRSTTQNNADQSKQPFSLTFSQADQPFAFSCLPYTAAELEQATHLEELPLPRRTVLSIYGAVRGVGGIDSWGADVEAKYHIPANQDLDFSFNIHFLEHHHHHH | not soluble |
| MSLSEEDLEKFLIKELTLQGYERLNLSDINDLESNFKLQLQRLNNISFSPTEWESFYRQNITNLKLTFEDKTKMLQSDGFTLTLEKEDGSKKNIILIDRVNPINNHLQVISQLKNENGEFKNRYDVSILVNGLPLVHIELKRRGVNLKEAFNQIRRYQKESFLEGNALYEFVQIFIISNGTLTKYYSNTNEGHHHHHH | soluble |
| MGSDKIHHHHHHMLVYIGNGHYCYSNSTAMFLSSIGENVSPQLVEILTGVGLGAMIEYEKNLYFSMRDPDDGINYALNILGFTAEEHQQASDLDDPFPLLKQQIKQNPVILGPLDMGELTYHPNHKNLNGSDHYVLGYQMDNENIYVQDPAGFPFVPLSLDQFKKAWMAERIPYRKGINKYWSTAKKVVTLDNNEIYERAIDYFKRTYRKFEKVDIGLIGREAICFYADQLLNAPITADTIRHTTFFLFQLSARRANDYAMYFKDRHSHLSVLKTEQAKVFGICHSMSVNKDWKGISEKLMKLADLEDNFRLELLKVGY | not soluble |
| MRNIQIALTKGRLEKHVIPLFEQIGIDCSELKNKGRKLVFQSKNTDISFILVKAVDVATYVEHGVADIGVVGKDILMENEKDIYEMLDLGVGVCKFCVASIPTYNPKSYRKKCIATKYPHITSNYFHNKGEDVEIIKIEGSVEIAPILGLADAIVDIVETGKTLQENGLIVFEEMYSISARMIVNKAALKTKKDEIFSIINMMEQEILSGK | not soluble |
| KKILVIGDLIADYYLWGKSERLSPEAPVPVLEVQRESKNLGGAANVANNLISLKAKVFLCGVVGDDLEGEHFISALKARGIDASGILIDKTRCTTLKTRIIAQNQQIARVDKEIKDPLNADLRKKLLDFFTEKIQEIDGVILSDYNKGVLDFELTQAMIALANQHHKLILCDPKGKDYSKYSHASLITPNRTELEHALHLKLDSHANLSKALQILKETYHIAMPLVTLSEQGIAFLEKGELVNCPTIAKEVYDVTGAGDTVIASLTLSLLESMSLKDACEFANAAAAVVVGKMGSALASLEEIALILNQTHPKILSLE | not soluble |

Reference: the DeepSol protein solubility set
